± gives the uncertainty stated by the source.
B1: Intersectin-2, residues 1129 to 1183; numbered along this chain, Q9NZM3 (parent)
chain: VCQVIAMYDYAANNEDELSFSKGQLINVMNKDDPDWWQGEINGVTGLFPSNYVKM

Variants of: B1
Test: abundance fitness (aPCA) (normalised: wild type 0, dead -1); higher = more abundant; growth selection in yeast, the domain comes from the species named
Settings: Homo sapiens

Variant | abundance fitness
VCQVIAMYDYAANNEDELSFSKGQLINVMNKDDPDWWQGEINGVTGMFPSNYVKM [L47M] | -0.128 ± 0.043
VCQVIAMYDYAANNEDELSFSKGQLINVMNKDDPDWWQGEINGVTGTFPSNYVKM [L47T] | -0.014 ± 0.043
VCQVIAMYDYAANNEDELSFSKGQLINVMNKDDPDWWQGEINGVTGLSPSNYVKM [F48S] | -0.775 ± 0.049
VCQVIAMYDYAANNEDELSFSKGQLINVMNKDDPDWWQGEINGVTGLDPSNYVKM [F48D] | -0.806 ± 0.17
VCQVIAMYDYAANNEDELSFSKGQLINVMNKDDPDWWQGEINGVTGLEPSNYVKM [F48E] | -0.834 ± 0.1
VCQVIAMYDYAANNEDELSFSKGQLINVMNKDDPDWWQGEINGVTGLPPSNYVKM [F48P] | -0.718 ± 0.19
VCQVIAMYDYAANNEDELSFSKGQLINVMNKDDPDWWQGEINGVTGLNPSNYVKM [F48N] | -1.17 ± 0.28
VCQVIAMYDYAANNEDELSFSKGQLINVMNKDDPDWWQGEINGVTGLLPSNYVKM [F48L] | 0 ± 0.036
VCQVIAMYDYAANNEDELSFSKGQLINVMNKDDPDWWQGEINGVTGLMPSNYVKM [F48M] | -0.092 ± 0.052
VCQVIAMYDYAANNEDELSFSKGQLINVMNKDDPDWWQGEINGVTGLGPSNYVKM [F48G] | -0.945 ± 0.079
VCQVIAMYDYAANNEDELSFSKGQLINVMNKDDPDWWQGEINGVTGLQPSNYVKM [F48Q] | -0.778 ± 0.12
VCQVIAMYDYAANNEDELSFSKGQLINVMNKDDPDWWQGEINGVTGLCPSNYVKM [F48C] | -0.199 ± 0.047
VCQVIAMYDYAANNEDELSFSKGQLINVMNKDDPDWWQGEINGVTGLVPSNYVKM [F48V] | -0.027 ± 0.031
VCQVIAMYDYAANNEDELSFSKGQLINVMNKDDPDWWQGEINGVTGLIPSNYVKM [F48I] | -0.085 ± 0.06
VCQVIAMYDYAANNEDELSFSKGQLINVMNKDDPDWWQGEINGVTGLTPSNYVKM [F48T] | -0.85 ± 0.096
VCQVIAMYDYAANNEDELSFSKGQLINVMNKDDPDWWQGEINGVTGLYPSNYVKM [F48Y] | -0.898 ± 0.18
VCQVIAMYDYAANNEDELSFSKGQLINVMNKDDPDWWQGEINGVTGLKPSNYVKM [F48K] | -1 ± 0.12
VCQVIAMYDYAANNEDELSFSKGQLINVMNKDDPDWWQGEINGVTGLAPSNYVKM [F48A] | -0.69 ± 0.036
VCQVIAMYDYAANNEDELSFSKGQLINVMNKDDPDWWQGEINGVTGLHPSNYVKM [F48H] | -0.937 ± 0.17
VCQVIAMYDYAANNEDELSFSKGQLINVMNKDDPDWWQGEINGVTGLWPSNYVKM [F48W] | -1 ± 0.23
VCQVIAMYDYAANNEDELSFSKGQLINVMNKDDPDWWQGEINGVWGLFPSNYVKM [T45W] | -0.153 ± 0.07
VCQVIAMYDYAANNEDELSFSKGQLINVMNKDDPDWWQGEINGVSGLFPSNYVKM [T45S] | -0.003 ± 0.041
VCQVIAMYDYAANNEDELSFSKGQLINVMNKDDPDWWQGEINGVMGLFPSNYVKM [T45M] | -0.145 ± 0.064
VCQVIAMYDYAANNEDELSFSKGQLINVMNKDDPDWWQGEINGVLGLFPSNYVKM [T45L] | -0.031 ± 0.03

Variant | abundance fitness
VCQVIAMYDYAANNEDELSFSKGQLINVMNKDDPDWWQGEINGVNGLFPSNYVKM [T45N] | -0.062 ± 0.062
VCQVIAMYDYAANNEDELSFSKGQLINVMNKDDPDWWQGEINGVKGLFPSNYVKM [T45K] | -0.03 ± 0.04
VCQVIAMYDYAANNEDELSFSKGQLINVMNKDDPDWWQGEINGVPGLFPSNYVKM [T45P] | -0.083 ± 0.038
VCQVIAMYDYAANNEDELSFSKGQLINVMNKDDPDWWQGEINGVRGLFPSNYVKM [T45R] | -0.076 ± 0.044
VCQVIAMYDYAANNEDELSFSKGQLINVMNKDDPDWWQGEINGVVGLFPSNYVKM [T45V] | -0.092 ± 0.049
VCQVIAMYDYAANNEDELSFSKGQLINVMNKDDPDWWQGEINGVQGLFPSNYVKM [T45Q] | -0.024 ± 0.064
VCQVIAMYDYAANNEDELSFSKGQLINVMNKDDPDWWQGEINGVTLLFPSNYVKM [G46L] | -0.701 ± 0.06
VCQVIAMYDYAANNEDELSFSKGQLINVMNKDDPDWWQGEINGVTWLFPSNYVKM [G46W] | -0.92 ± 0.083
VCQVIAMYDYAANNEDELSFSKGQLINVMNKDDPDWWQGEINGVTPLFPSNYVKM [G46P] | -1.01 ± 0.17
VCQVIAMYDYAANNEDELSFSKGQLINVMNKDDPDWWQGEINGVTCLFPSNYVKM [G46C] | -0.606 ± 0.068
VCQVIAMYDYAANNEDELSFSKGQLINVMNKDDPDWWQGEINGVTFLFPSNYVKM [G46F] | -0.864 ± 0.27
VCQVIAMYDYAANNEDELSFSKGQLINVMNKDDPDWWQGEINGVTYLFPSNYVKM [G46Y] | -0.807 ± 0.21
VCQVIAMYDYAANNEDELSFSKGQLINVMNKDDPDWWQGEINGVTKLFPSNYVKM [G46K] | -0.1 ± 0.033
VCQVIAMYDYAANNEDELSFSKGQLINVMNKDDPDWWQGEINGVTSLFPSNYVKM [G46S] | -0.764 ± 0.047
VCQVIAMYDYAANNEDELSFSKGQLINVMNKDDPDWWQGEINGVTTLFPSNYVKM [G46T] | -0.788 ± 0.11
VCQVIAMYDYAANNEDELSFSKGQLINVMNKDDPDWWQGEINGVTHLFPSNYVKM [G46H] | -1.05 ± 0.1
VCQVIAMYDYAANNEDELSFSKGQLINVMNKDDPDWWQGEINGVTMLFPSNYVKM [G46M] | -1.06 ± 0.15
VCQVIAMYDYAANNEDELSFSKGQLINVMNKDDPDWWQGEINGVTDLFPSNYVKM [G46D] | -0.799 ± 0.13
VCQVIAMYDYAANNEDELSFSKGQLINVMNKDDPDWWQGEINGVTELFPSNYVKM [G46E] | -0.973 ± 0.056
VCQVIAMYDYAANNEDELSFSKGQLINVMNKDDPDWWQGEINGVTRLFPSNYVKM [G46R] | -0.318 ± 0.037
VCQVIAMYDYAANNEDELSFSKGQLINVMNKDDPDWWQGEINGVTILFPSNYVKM [G46I] | -1.14 ± 0.22
VCQVIAMYDYAANNEDELSFSKGQLINVMNKDDPDWWQGEINGVTALFPSNYVKM [G46A] | -0.137 ± 0.03
VCQVIAMYDYAANNEDELSFSKGQLINVMNKDDPDWWQGEINGVTQLFPSNYVKM [G46Q] | -0.945 ± 0.082
VCQVIAMYDYAANNEDELSFSKGQLINVMNKDDPDWWQGEINGVTNLFPSNYVKM [G46N] | -0.483 ± 0.042

Source: the Human Domainome abundance scans (Beltran et al. 2025)
